According to paper doi:10.1101/477745:

Molecular target: Era fused to SB (small bit of luciferase) (S. aureus) (UniProt Q2FGF6)
Test: split reporter

Chain of YbeY (split luciferase fusion) (natural protein) (A5IT98 whole entry, the tested form may be a part): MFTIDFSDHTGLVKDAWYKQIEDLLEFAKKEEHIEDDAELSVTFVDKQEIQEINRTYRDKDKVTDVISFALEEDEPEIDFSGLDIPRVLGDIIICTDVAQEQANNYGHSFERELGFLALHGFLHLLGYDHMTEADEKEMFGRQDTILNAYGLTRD

luminescence relative to the control (x above the control): 2
Substance: YbeY (split luciferase fusion) (natural protein)
